Usually Kd stands for the constant that tells how readily two partners part at equilibrium.

For assay [1], the target named is T1, hen egg white lysozyme (Gallus gallus, UniProt P00698 19-147).
T1 construct: mature; The residue numbers E35, D52, W63, D101 and N103 fit mature numbering; also called hen egg lysozyme; Gallus gallus egg white lysozyme
The experiment in a line: micropanning: monoclonal phage on lysozyme coated on a 96-well plate, bound phage eluted and counted by bacterial infection. The procedure: BSA (white), RNaseA (hatched) and hen egg white lysozyme (black) were immobilised and incubated with monoclonal phage samples. Bound particles were detected with a mouse anti-M13 primary antibody and an HRP-conjugated anti-mouse secondary antibody. […] A 96-well plate was coated with lysozyme (black bars) or BSA (white bars) and incubated with monoclonal phage samples from clones picked after 6 rounds of selection. Bound phage were eluted and counted by bacterial infection.
Hen egg white lysozyme is a small stable protein which is commercially available and has a number of medically important human homologues. After four rounds of panning on immobilised lysozyme, enrichment of bound phage was observed. A further two more rounds of panning were performed before clones were randomly picked and screened for binding to lysozyme. Monoclonal phage samples were then prepared and studies were undertaken to characterize binding in a 'micropanning' approach on lysozyme immobilised on a 96-well ELISA plate. Bound phage were eluted and counted. […] These clones were sequenced. Sequences for some of the clones were identical (L14 and L15; L4 and L18; L8 and L21) narrowing down the number of unique clones to six.

Assay [2] concerns the target T2, BSA (Bos taurus, UniProt P02769).
T2 construct: commercial protein; also called Bovine Serum Albumine
As to the kind of experiment: micropanning: monoclonal phage on BSA coated on a 96-well plate, bound phage eluted and counted.

The target in assay [3] is T1, hen egg white lysozyme. As to the kind of experiment: SPR (Biacore), lysozyme amine-coupled to CM5 chip, L6 as analyte from 370 µM in 1:2 dilutions, steady-state response plot. The procedure: The ligand lysozyme was coupled to a CM5 Biacore sensor chip, at 30 µg/mL in sodium acetate buffer at pH 4.3 via the primary amine groups of the protein. The second of four flow cells available on the chip was activated with 35 µL, at 5 µL/min, of a 1:1 mixture of EDC:NHS (commercially available from Biacore). Lysozyme was coupled to the activated surface with successive injections of between 10-20 µL, until an adequate response was seen. Remaining uncoupled active groups on the chip were deactivated with an injection of ethanolamine-HCl. For analysis, OB3 13mRL L6 was organized in a 1:2 dilution series of six concentrations, beginning at 370 µM in running buffer, plus a buffer-only blank. Each of the seven samples were analyzed in duplicate for 1 min @ 25 µL/min, in random order, using the first flow cell as a reference. The response curves were visualized and processed using BIAevaluation (Biacore). Relative response at each concentration was averaged and plotted to determine Rmax and kD using Sigma Plot (Systat Software, Inc.).
(In general: SPR reads the build-up and loss of mass on a sensor chip optically.)

Assay [4] addresses T1, hen egg white lysozyme. As to the kind of experiment: phage ELISA on immobilised lysozyme, multivalent display. On the technique in general: ELISA stands for enzyme-linked immunosorbent assay.
For assay [5], the target named is T3, RNaseA (Bos taurus, UniProt P61823).
T3 construct: commercial protein
T3 sequence (single chain, looked up): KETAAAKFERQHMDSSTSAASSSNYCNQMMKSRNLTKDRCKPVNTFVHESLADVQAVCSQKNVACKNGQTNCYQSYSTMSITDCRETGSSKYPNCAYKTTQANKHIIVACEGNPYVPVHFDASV
As to the kind of experiment: phage ELISA, immobilised RNaseA, anti-M13 antibody and HRP-conjugated secondary antibody, absorbance.

The target of assay [6] is T2, BSA. The experiment in a line: phage ELISA, immobilised BSA, anti-M13 antibody and HRP-conjugated secondary antibody, absorbance.
In assay [7] the target is T1, hen egg white lysozyme. The experiment in a line: surface plasmon resonance; L8, from the crystal-structure interface table.
Assay [8] addresses T1, hen egg white lysozyme. As to the kind of experiment: phage ELISA, multivalent display, immobilised hen egg white lysozyme, anti-M13 antibody and HRP-conjugated secondary antibody, absorbance. The procedure:
(§1) Phage ELISA experiments were performed to analyse selected clones for binding to lysozyme. Ninety-six-well ELISA plates were coated with 5 ug/ml hen egg lysozyme, 5 ug/ml RNaseA or 1% BSA in PBS at 4° C. overnight. After two washes with TBS, plates were blocked with blocking buffer (5% skim milk in TBS) for one hour at RT before phage (10^9 cfu/well, derived from VCS-M13d3) were added in 2.5% skim milk-TBS-T. Plates were incubated for 2 hours at RT with agitation. After 10 washes with H_2O, mouse anti-M13 protein VIII diluted in blocking buffer was added and incubated for 1 h at RT. Plates were washed 4 times with H_2O and horseradish peroxidase (HRP)-coupled rabbit-anti-mouse immunoglobulins (Pierce) in blocking buffer were added to the wells and incubated for 1 h at RT. Wells were washed 4 times with H_2O and 50 ul substrate solution (1 mg/ml o-phenylene-diamine in PBS 0.030% H_2O_2) was added per well. The reaction was stopped after ~15 min by addition of 25 ul 2.5 M H_2SO_4 and the absorbance was recorded at 492 nm.
(§2) BSA (white), RNaseA (hatched) and hen egg white lysozyme (black) were immobilised and incubated with monoclonal phage samples. Bound particles were detected with a mouse anti-M13 primary antibody and an HRP-conjugated anti-mouse secondary antibody. […] Bound phage were eluted and counted by bacterial infection.

The target of assay [9] is T3, RNaseA. As to the kind of experiment: phage ELISA, multivalent display, immobilised RNaseA, anti-M13 antibody and HRP-conjugated secondary antibody, absorbance. As for the experimental part: as §1, §2

T2 sequence (P02769 25-607 limits assumed): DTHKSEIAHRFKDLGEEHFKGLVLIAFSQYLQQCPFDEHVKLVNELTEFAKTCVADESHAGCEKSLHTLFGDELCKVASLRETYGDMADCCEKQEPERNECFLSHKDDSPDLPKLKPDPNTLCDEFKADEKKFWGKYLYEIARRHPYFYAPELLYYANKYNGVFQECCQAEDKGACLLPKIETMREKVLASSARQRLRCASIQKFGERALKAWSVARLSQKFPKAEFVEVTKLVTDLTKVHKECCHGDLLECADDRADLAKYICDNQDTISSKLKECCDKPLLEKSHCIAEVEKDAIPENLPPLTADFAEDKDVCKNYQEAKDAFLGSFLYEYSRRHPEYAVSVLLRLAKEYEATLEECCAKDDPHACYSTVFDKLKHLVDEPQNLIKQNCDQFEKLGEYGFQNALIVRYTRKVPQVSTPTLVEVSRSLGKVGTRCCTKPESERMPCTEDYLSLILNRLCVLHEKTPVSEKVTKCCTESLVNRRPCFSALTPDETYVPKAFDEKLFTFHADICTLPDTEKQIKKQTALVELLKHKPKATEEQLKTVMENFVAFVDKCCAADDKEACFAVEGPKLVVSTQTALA
T1 sequence (P00698 19-147): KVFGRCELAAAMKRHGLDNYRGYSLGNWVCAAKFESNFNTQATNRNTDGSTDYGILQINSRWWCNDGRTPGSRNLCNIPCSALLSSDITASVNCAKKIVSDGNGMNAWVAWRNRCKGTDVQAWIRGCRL

B1: L16 (aspRS-OB 13mRL mutant) displayed on phage as pIII fusion (designed binder)
chain: VYPKKTHWTAEITPNLHGTEVVVAGWVASLVDGGPRKWVFVRDREGGAEVTVELTAGKTPDHLFKVFAELSREDVVVIKGIVEASKGLRWGVEIFPSEIWILNKAKPLPID
notes: Monoclonal phage, monovalent display, micropanning only; not shown: c-myc tag and pIII of phagemid pRPSP2 (display carriers at the C end)
In the case of B1, the binding result in [1] is “binds”; in assay [2] it was “no binding”.

B2: L6 (aspRS-OB 13mRL mutant) displayed on phage as pIII fusion (designed binder)
chain: VYPKKTHWTAEITPNLHGTEVVVAGWVEDLVDAGKTKWVFVCDREGGAQVIVELVAGKTPDHLFKVFAELSREDVVVIKGIVEASKSRAVGVEIFPSEIWILNKAKPLPID
notes: Monoclonal phage; Monovalent display in micropanning, multivalent display in ELISA; not shown: c-myc tag and pIII of phagemid pRPSP2 (display carriers at the C end)
Turning to B2, the binding result in assay [2] is “no binding”.

B3: OB3 13mRL L6, expressed and purified (designed binder)
chain: VYPKKTHWTAEITPNLHGTEVVVAGWVEDLVDAGKTKWVFVCDREGGAQVIVELVAGKTPDHLFKVFAELSREDVVVIKGIVEASKSRAVGVEIFPSEIWILNKAKPLPID
notes: Analyte in the Biacore experiment; also called Clone L6; selected OB-fold domain L6
The molecule B3 displayed a Kd in assay [3] of 36 µM. This counts as double-digit micromolar.

B4: L34 (aspRS-OB 13mRL mutant) displayed on phage as pIII fusion (designed binder)
chain: VYPKKTHWTAEITPNLHGTEVVVAGWVVGLMDEGALKGVEVRDREGGAPVEVTLEAGKTPDHLFKVFAELSREDVVVIKGIVEASKGYGSGVEIFPSEIWILNKAKPLPID
notes: Monoclonal phage, multivalent display, ELISA; not shown: c-myc tag and pIII of phagemid pRPSP2 (display carriers at the C end)
With B4, the binding result in assay [4] is on record as “binds”; in [5], “no binding (tested: 10^9 cfu/well)”; in assay [6], “no binding (tested: 10^9 cfu/well)”.

B5: L8 (aspRS-OB 13mRL mutant) displayed on phage as pIII fusion (designed binder)
chain: VYPKKTHWTAEITPNLHGTEVVVAGWVASLGDYGRVKIVKVSDREGGAAVPVYLEAGKTPDHLFKVFAELSREDVVVIKGIVEASKGVGRGVEIFPSEIWILNKAKPLPID
notes: Monoclonal phage; also called L21; L33; not shown: c-myc tag and pIII of phagemid pRPSP2 (display carriers at the C end)
As to B5, the binding result in assay [2] is given as “no binding”.

B6: OBody L8, purified, GST tag removed (designed binder)
chain: VYPKKTHWTAEITPNLHGTEVVVAGWVASLGDYGRVKIVKVSDREGGAAVPVYLEAGKTPDHLFKVFAELSREDVVVIKGIVEASKGVGRGVEIFPSEIWILNKAKPLPID
notes: GST tag removed with rTEV protease; Used for co-crystallisation with lysozyme
In turn, B6 returned a dissociation constant Kd in [7] of 36 µM.

B7: L5 (aspRS-OB 13mRL mutant) displayed on phage as pIII fusion (designed binder)
chain: VYPKKTHWTAEITPNLHGTEVVVAGWVTDLVDAGTWKFVQVADREGGANVWVSLVAGKTPDHLFKVFAELSREDVVVIKGIVEASKLPSYGVEIFPSEIWILNKAKPLPID
notes: as for B2
Turning to B7, the binding result in assay [8] is on record as “binds”; in assay [2] it was “no binding”.

B8: L14 (aspRS-OB 13mRL mutant) displayed on phage as pIII fusion (designed binder)
chain: VYPKKTHWTAEITPNLHGTEVVVAGWVSDLLDAGRAKYVFVYDREGGAEVMVTLAAGKTPDHLFKVFAELSREDVVVIKGIVEASKGWRDGVEIFPSEIWILNKAKPLPID
notes: Monoclonal phage; also called L15; L32; not shown: c-myc tag and pIII of phagemid pRPSP2 (display carriers at the C end)
Consider B8, for which the binding result in assay [8] was “binds”; in [9], “binds”; in assay [2], “no binding”.

The record behind these values is patent US9181543 (OBODIES, dated 2015).
